In patent US20140371148A1:

Target: ACE from rabbit lung (rabbit) (UniProt P12822)
Assay: cell-based or functional assay

ACE from rabbit lung (rabbit), sequence (P12822 34-1310 limits assumed, form in doubt): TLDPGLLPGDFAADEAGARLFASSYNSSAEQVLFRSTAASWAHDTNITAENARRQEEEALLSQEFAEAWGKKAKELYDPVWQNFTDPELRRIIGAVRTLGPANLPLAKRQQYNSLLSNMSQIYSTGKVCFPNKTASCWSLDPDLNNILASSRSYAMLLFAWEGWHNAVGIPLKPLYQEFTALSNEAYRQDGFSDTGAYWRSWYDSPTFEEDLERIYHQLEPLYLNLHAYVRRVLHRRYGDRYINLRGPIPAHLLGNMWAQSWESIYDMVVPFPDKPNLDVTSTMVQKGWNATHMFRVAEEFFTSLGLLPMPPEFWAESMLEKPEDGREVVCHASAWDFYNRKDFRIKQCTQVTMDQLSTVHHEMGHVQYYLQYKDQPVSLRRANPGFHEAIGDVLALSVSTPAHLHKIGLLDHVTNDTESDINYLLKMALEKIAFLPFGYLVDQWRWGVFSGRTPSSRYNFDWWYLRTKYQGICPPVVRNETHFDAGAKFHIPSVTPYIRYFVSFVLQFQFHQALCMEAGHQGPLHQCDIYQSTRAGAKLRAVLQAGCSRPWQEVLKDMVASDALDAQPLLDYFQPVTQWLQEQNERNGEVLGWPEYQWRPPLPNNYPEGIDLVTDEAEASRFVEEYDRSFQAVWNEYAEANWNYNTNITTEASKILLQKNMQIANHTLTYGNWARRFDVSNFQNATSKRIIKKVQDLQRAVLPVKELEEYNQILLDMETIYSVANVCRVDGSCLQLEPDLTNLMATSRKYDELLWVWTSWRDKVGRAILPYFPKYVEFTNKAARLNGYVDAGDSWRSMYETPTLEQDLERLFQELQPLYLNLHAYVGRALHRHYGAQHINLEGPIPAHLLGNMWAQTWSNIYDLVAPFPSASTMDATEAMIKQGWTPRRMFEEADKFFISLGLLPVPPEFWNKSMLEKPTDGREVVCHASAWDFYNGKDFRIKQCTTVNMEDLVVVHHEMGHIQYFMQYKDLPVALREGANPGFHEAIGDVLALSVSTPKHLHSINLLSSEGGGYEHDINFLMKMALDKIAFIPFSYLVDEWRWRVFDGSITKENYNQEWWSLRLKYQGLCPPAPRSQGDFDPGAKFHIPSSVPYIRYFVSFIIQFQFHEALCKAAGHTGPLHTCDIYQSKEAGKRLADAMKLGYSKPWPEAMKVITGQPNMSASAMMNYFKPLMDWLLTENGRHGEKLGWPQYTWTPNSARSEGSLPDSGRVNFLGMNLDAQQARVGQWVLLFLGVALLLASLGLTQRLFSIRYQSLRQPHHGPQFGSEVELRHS

GLP-1-(7-37)-γ-Abu-N^ε2Lys-(Pyr)-WAP-OH (peptide)
ACE inhibition IC50: > 10 µM
